Assay results published in patent publication EP0662514A1.

Legend:
[1] = biological target: Chymotrypsin (bovine) (Bovine) (UniProt P00766); assay: cell-based or functional assay
[2] = biological target: Trypsin (bovine) (Bovine) (UniProt P00760); assay: cell-based or functional assay
[3] = biological target: Factor Xa (human) (Human) (UniProt P00742); assay: cell-based or functional assay
[4] = biological target: Chymotrypsin (bovine) (Bovine) (UniProt P00766); assay: enzyme inhibition at equilibrium, apparent Ki from fit to the tight binding inhibitor equation
[5] = biological target: Tissue kallikrein (porcine) (Porcine) (UniProt P00752); assay: as above
UniProt P00752, sequence (P00752 8-246 limits assumed): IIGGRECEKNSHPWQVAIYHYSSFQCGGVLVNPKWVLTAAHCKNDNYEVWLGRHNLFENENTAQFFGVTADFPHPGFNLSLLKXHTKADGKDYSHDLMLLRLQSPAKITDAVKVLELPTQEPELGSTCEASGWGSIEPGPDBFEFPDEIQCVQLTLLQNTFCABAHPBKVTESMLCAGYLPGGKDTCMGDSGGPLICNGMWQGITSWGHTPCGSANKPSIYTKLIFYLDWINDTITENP

[6] = biological target: Trypsin (bovine) (Bovine) (UniProt P00760); assay: as above
[7] = biological target: Cathepsin G (human) (Human) (UniProt P08311); assay: as above
UniProt P08311, sequence (P08311 21-244 limits assumed): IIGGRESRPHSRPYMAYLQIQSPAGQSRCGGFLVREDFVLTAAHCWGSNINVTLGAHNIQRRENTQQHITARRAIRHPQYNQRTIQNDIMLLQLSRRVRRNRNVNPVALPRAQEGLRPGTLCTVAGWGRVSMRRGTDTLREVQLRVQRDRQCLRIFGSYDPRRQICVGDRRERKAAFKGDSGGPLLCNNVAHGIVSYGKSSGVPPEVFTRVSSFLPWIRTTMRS

Plasmin (human) (Human) = Plasmin (human) (Human) (UniProt P00747); assay: as above
UniProt P00747, sequence (P00747 97-810 limits assumed): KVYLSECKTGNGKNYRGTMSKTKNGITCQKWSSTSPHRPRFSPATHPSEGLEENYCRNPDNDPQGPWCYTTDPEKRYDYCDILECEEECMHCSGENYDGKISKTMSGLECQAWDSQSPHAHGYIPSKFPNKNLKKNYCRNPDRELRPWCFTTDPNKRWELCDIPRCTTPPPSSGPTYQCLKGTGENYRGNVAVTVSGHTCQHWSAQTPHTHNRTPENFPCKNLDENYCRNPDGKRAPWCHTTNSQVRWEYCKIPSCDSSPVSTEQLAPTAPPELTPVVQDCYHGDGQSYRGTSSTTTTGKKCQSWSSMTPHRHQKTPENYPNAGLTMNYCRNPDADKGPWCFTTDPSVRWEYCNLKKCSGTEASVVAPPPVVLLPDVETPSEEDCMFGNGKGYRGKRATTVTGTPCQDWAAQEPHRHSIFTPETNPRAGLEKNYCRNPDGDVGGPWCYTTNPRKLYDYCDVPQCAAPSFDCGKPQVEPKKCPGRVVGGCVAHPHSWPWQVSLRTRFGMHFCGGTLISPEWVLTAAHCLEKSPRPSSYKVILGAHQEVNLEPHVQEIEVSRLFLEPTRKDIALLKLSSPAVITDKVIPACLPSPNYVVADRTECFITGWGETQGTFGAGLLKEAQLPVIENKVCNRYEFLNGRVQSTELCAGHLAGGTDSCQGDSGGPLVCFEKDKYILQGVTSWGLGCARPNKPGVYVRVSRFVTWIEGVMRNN

UniProt P00742, sequence (P00742 41-488 limits assumed): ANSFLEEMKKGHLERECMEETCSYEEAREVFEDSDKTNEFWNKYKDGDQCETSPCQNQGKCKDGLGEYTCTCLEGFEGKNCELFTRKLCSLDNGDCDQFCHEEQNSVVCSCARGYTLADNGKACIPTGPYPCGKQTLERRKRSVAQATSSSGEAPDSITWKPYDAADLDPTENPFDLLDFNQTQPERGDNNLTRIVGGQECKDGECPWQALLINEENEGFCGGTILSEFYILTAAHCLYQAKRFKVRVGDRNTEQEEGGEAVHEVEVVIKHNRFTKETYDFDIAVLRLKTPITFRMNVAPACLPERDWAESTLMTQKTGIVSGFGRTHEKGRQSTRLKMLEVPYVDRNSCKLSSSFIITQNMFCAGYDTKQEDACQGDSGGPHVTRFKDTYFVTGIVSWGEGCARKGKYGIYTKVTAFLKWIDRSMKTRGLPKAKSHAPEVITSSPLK
UniProt P00760, sequence (P00760 24-246): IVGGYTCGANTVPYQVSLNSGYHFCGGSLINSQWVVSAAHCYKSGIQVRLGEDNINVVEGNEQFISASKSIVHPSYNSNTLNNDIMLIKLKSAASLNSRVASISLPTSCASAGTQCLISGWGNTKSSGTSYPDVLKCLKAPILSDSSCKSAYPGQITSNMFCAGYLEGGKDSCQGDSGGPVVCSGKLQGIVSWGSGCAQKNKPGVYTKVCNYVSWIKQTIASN

hirustasin
SA [IU/mg] (specific inhibitory activity against chymotrypsin, Mono S pool) [1]: 0.15 IU/mg
SA [IU/mg] (specific inhibitory activity against trypsin, Mono S pool) [2]: 2.7 IU/mg
Partial Thromboplastin Time, hirustasin at 1.3 mM; buffer 47.3 s [3]: 47.9 s
Quick (prothrombin time), hirustasin at 1.3 mM; buffer 79 % [3]: 80%
Ki [4]: 6.4 nM
Ki [5]: 13 nM
Ki [6]: 7 nM
Ki [7]: 2.9 nM
Ki (Plasmin (human) (Human)): 138 nM
